From the nanobody polyreactivity screen of Harvey et al. (2022)

Test: yeast display, Sf9 membrane polyspecificity reagent, FACS + sequencing; frameworks hold sequencing errors
Procedure, shortened: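 Galactose-induced (36–48 hours) yeast carrying a synthetic nanobody display library were exposed to 10% biotinylated, detergent-solubilized Sf9 membrane reagent at 4 °C for 1 hour. FACS followed streptavidin microbead enrichment, using low and high (top ~1%) gates for expression (anti-HA) and reagent binding (streptavidin). Colony PCR, MiSeq 2 × 250 sequencing and CDR-length filtering followed. Labels for polyreactivity reflect the gate of origin.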

Sequence | polyreactivity (PSR sort gate)
QVQLVESGGGLVQAVVSLRLSCADTGFTFRRYAMGWDRQAPGKERELVAVITTAGSTNYADSVKGRFTISRDNAKNTVYLKMNSLKPEDTAVYYCATDNGTRKRRYDYWGQGTQVTVSS | low polyreactivity
QVQLVESGGGLVQEGCSLRLICAASGSIFGYYAMGWYRQAPGKERELVAAISTAGSTNYADSVKGRFTISRDNAKNTVYLQMNSLKPEDTAVYYCAKKSSWYYPERFDYWGQGTQVTVSS | low polyreactivity
QVQLVESGGGLVQEGDSLRLSCAASGIIFLWYTLGLYRPAPGKERELVATISWGGGSTYADSVKGRFTISRDNAKNTVYLQMNSLKPEDTAVYYCAADNRYFRGQAYDYWGQGTQVTVSS | low polyreactivity
QVQLVESGGGLVQEGGSLHLICAASGRIFGKYPMGWYRQAPGKEREFVAAIRSSDGNTYYADSVKGRFTISRDNAKNTVYLQMNSLKPDDTAVYYCNAGRVTRRDTFDYWGQGTQVTVSS | high polyreactivity
QVQLVESGGGLVQEGGSLRFSCAASGFTFDHYAMGWNRQAPGKERELVAVITKSGDSTYYADSVKGRFTISRDNAKNTVYLQMNSQKPEDPAVYYCNARRDYDMDWGQGTQVTVSS | high polyreactivity
QVQLVESGGGLVQEGGSLRISCAASGFSYENNAMGRYRQAPGKERERVAGITSGGGSTYYADSVKGRFTISRDNAKNTVYLQMNSLKPEDTAVYYCNKMYTRVGFTFEYWGQGTQVTVSS | low polyreactivity
QVQLVESGGGLVQEGGSLRLICAASGRIFGDYGMGWYRQAPGKERELVAAITDRGGTTYYADSVKGRFTISRDNAKNTVYLQMNSLNPEDTAVYYCNARQSDIFDYDYWGQGTQVTVSS | low polyreactivity
QVQLVESGGGLVQEGGSLRLICAASGRTLNSYDMGWYRQEPGKERELVAAISWSGTNTYYSDSVKGRFTISRDNAKNTVYLQMNCLKPEDTAVYYCNAVTKATRYEYWGQGTQVTVSS | high polyreactivity
QVQLVESGGGLVQEGGSLRLICAASGSIFWLYAMGWYRQAPGKERELVAAIDSGDSTKYADSVKGRFTISRDNAKYTVYLQMNSLKPEDTAVYYCNASRRYHVRAPYDYWGQGTQVTVSS | low polyreactivity
QVQLVESGGGLVQEGGSLRLICEASGFIFYNYAMGWYRQAPGKERELVAAISSSGGRTYYADSVKGRFTISRDNAKNTVYLQMNRLKREDTAVYYCNARVNYKGYDYWGQGTQVTVSS | high polyreactivity
QVQLVESGGGLVQEGGSLRLSCAASGFIFKHYAMGWYRQAPGKEMELVAAISGGGSTNYADSVKGRFTISRDNAKNTVYLQMNSLKPEDSAVYYCAARSRSLGYGYWGQGTHVTVSS | low polyreactivity
QVQLVESGGGLVQEGGSLRLSCAASGFISGFYGMGWYRQAPRKEREFVAAIEFIDGDTYYADSVKGRFTISRDNAKNTVYLQMNSLKPEDTAVYYCAADGSFWQFDYWGQGTQVTVSS | low polyreactivity
QVQLVESGGGLVQEGGSLRLSCAASGFTFAQYALGWYRQAPGNERELVAAISRRGGRTYYADSVTGRFTISRDIAKNTVYLQMTSLKPEDSAVSYCAADGGYQDDYDYWGQGTQVTVSS | high polyreactivity
QVQLVESGGGLVQEGGSLRLSCAASGFTFNNYAMGWYRQAPGKERELVAAISSVGRTYYAYSVKGRFTISRDNAKNTVYLQMISLKPEDTAVYYCNRRWYTHWGQGTQVTVSS | high polyreactivity
QVQLVESGGGLVQEGGSLRLSCAASGIIFLDNAMGWYRQAPGKERELVAAITTGGITYYADSVKGRFTISRDNAKNTVYLQMNSLKPEDTAVYYCATDPVNSGYQRYYYWGQGTQVTVSS | low polyreactivity
QVQLVESGGGLVQEGGSLRLSCAASGLIFRYYGMGWYRQAPGKERELVAAIRWSAGSTYYADSVKGRFTNSRDYAKITVYFQMNSLKPEDTAVYYCAVAIGYVYKPYYYWGQGTQVTVSS | high polyreactivity
QVQLVESGGGLVQEGGSLRLSCAASGLIFSEYAMGWSRQAPGKERELVAAIRSDGGSTYYADSVKGRFTISRDNAKNSVYLQMNSLKPEDTAVYYCNAPYRRSAKFRRYGYDYLGQGTQVTVSS | high polyreactivity
QVQLVESGGGLVQEGGSLRLSCAASGLTFTGNAMGGYRQAPGKEREFVAAIRWSAGSTYYADSVKGRFTISRDNAKNTVYLQMNSLKPEDTAVYYCYAALIVSGHNPNDYWGQGTQVTGSS | low polyreactivity
QVQLVESGGGLVQEGGSLRLSCAASGRIFKYNAMGWYRQAPGKERELVAAISSSGGSTYYADSVKGRFTISRDNAKNTVYLHMNSLKPEDTAVYYCAARYNSRVYRYDYWGQGTQVTVSS | high polyreactivity
QVQLVESGGGLVQEGGSLRLSCAASGRIFSYNTVMGWYIQAPGKERELVAAITFSSASTYYADSVKGRFTISRDNAKNTVYLQMNSLKPEDTAVYYCAAAIRSQSSKYYYWGQGTQVTVSS | low polyreactivity
QVQLVESGGGLVQEGGSLRLSCAASGRTFAVYAMGWYRQAPGKERELVAAITYGGGRTYYADSVKGRFTISRDNAKNTVYLQMNSLKPEDTAVYYCAADYYGTDYDYWGQGTQVTVSS | low polyreactivity
QVQLVESGGGLVQEGGSLRLSCAASGRTFTTYAMGWYRQAPGKERELVAAISDTGGITYYADSVKGRFTISRDTAKNTVYIQMNSLKPEDTAVYYCNAESYGGDYDYWGQGTQVTVSS | low polyreactivity

Sequence | polyreactivity (PSR sort gate)
QVQLVESGGGLVQEGGSLRLSCAASGRTIIQNGMGWYRQAPGKERELVAAISYRGGTTSYADSVKGRFTISRDNAKNTVYLQMNSLKPEDTAVYSCAAVGHTIYATPTYYYWGQGTQVTVSS | high polyreactivity
QVQLVESGGGLVQEGGSLRLSCAASGRTIVSNAMGWYRQAPGKERELVAAIRYGGGRTYYADSVKGRFTISRDNAKNTVYLQMNSLKPEDTAVYYCAKRSVGGTGYYWGQGTQVTVSS | high polyreactivity
QVQLVESGGGLVQEGGSLRLSCAASGRTLYRNAMGWYRQAPGKERELVAAISRSGGRTSYADSVKGRFTISRDNANNTVYLQMNSLIPEDTAVYYCNDVASHEFDYWGEGTQVTVSS | high polyreactivity
QVQLVESGGGLVQEGGSLRLSCAASGSIFGGYALGWYRQAPGKERELVAAITWRGGRTYYADSVKGRFTISRDNAKNTVYLQMNSMKPEDTAVYYCNAVGSYRLYDYWGQGTQVTVSS | high polyreactivity
QVQLVESGGGLVQEGGSLRLSCAASGSIFYNAMGWTRQAPGKERELVAAISSRGASTYYADSVKGRFTISRDNAKNTVYLLMNSLKPEDTAVYYCAKDNRYPYPSGLDYWGQGTQVTVSS | high polyreactivity
QVQLVESGGGLVQEGGSLRLSCAASGSILYYYAMGWYRQAPGKERELVATITRRGGSTYYADSVKGRFTISRDNAKNTVYLQMNSLKPEDTAVYFCAARSRYGELYYWGQGTQVTVSS | high polyreactivity
QVQLVESGGGLVQEGGSLRLSCAASGSTFAANTMGWYRQAPGKERELVAAITVRGGSTYYADSVKGRFSMSRDNAKNTVYLQTNSLKPEDTAVYDCAAERPPYGYLVVGYVSTQYYYWGQGTQVTVSS | low polyreactivity
QVQLVESGGGLVQEGGSLRLSCAASGSTFTPYAMGWYRQAPGKERELVAGITGNGGSTRYADSVKGRFTISRDNEKNTVYLQMKSLKTEDSAVYYCAARWTRQRYRTSYYAWGQGTQVTVSS | high polyreactivity
QVQLVESGGGLVQEGGSLRLSCAASGSTFTYNDMGRYRQAPGKERELVAAITDSDGITYYADSVKGRFTISRDNAKNTVYLQMHSLKPEDTAVSYCAAYYYGSVAQDREYWGQGTQVTVSS | high polyreactivity
QVQLVESGGGLVQEGGSLRLSCAASGSTFYSNAMGWYRQARGKEREFLAAISWSGGSTYYADSVKGRFTISRDNAKNTVYFQMNSLKPEDTAVYYCAKKPYYYAFCGYGYWGQGSQVTVSS | high polyreactivity
QVQLVESGGGLVQEGGSLRLSCAASGYIFWSNTMGWYRQAPGKERELVAAISQSTASTYYADSVKGRFTISRDNAKNTVYLQMNSLKPDDTAVYYCAADGWSRSWGYWVHYGYWGQGTQVTVSS | low polyreactivity
QVQLVESGGGLVQEGGSLRLSCAASVRIFSDYAMGWYIQAPGKERELVATITSGDSTNYADSVKGRFTISRDNAKNTVYLQMNSLKPEDNAVYYFNADRFADYDYWGQGTQVTVSS | low polyreactivity
QVQLVESGGGLVQEGGSLRLSCAAYGFIFGDNALGWYRQAPGKERELVAGSTVSDGSTYYADSVKGRFTISRDNAKNTVYLLMNSLKPEDTAVYYCNAAGRYKPGAPYDYWGQGNQVTVSS | low polyreactivity
QVQLVESGGGLVQEGGSLRLSCACSARTITGYAIGWYRQAPGQEWEVVAAIYRRGASTYYADSVKGRFTISRDNAKNTVYLEMNSLKPEDTAVDYCAAYLYGLWSVGRDYWGQGTQVTVSS | high polyreactivity
QVQLVESGGGLVQEGGSLRLSCADSGRIFSTNAMGWSRQAPGKERELVAAISWSTGSTYYADSVKGRFTISRDNAKNTVYLQMNSLKPEDTAVYYCAASYTRTYWAYSYGYWGQGTQVTVSS | high polyreactivity
QVQLVESGGGLVQEGGSLRLSCADSGSTFHYYTMGWYRQAPGKERELVAAISWRGTSTYYADSVKGRFTISRDNAKNTVYLQMNSLKPEDTAVYYCAVRSSPGAGYYYWGQGTQVTVSS | high polyreactivity
QVQLVESGGGLVQEGGSLRLSCDASAITIGRYAMGWYRQAPGKERELVAAISWSGGSTYFADSVKGRFTISRDNAKNTVYLHMNSLKPEDTAVYYCATRIRTVAYNYWGQGTQVTVSS | high polyreactivity
QVQLVESGGGLVQEGGSLRLTCAASGITFIYYAMGWYRQAPGKERELVAAISTGGSTYYADSVKGRCTISRDNAMNTVYLQMISLKPEDTAVYYWNALRKSLRGGDYWGQGTQVTVSS | high polyreactivity
QVQLVESGGGLVQEGGSLSLSCAASGLTFTGNAMAWYRQAPGKEREFVAAIRWSAGSTYYADSVKGRFTISRDNAKNTVYLQMNSLKPEDTAVYYCYAALNVSGHYPNDYCGQGTQVTVSS | low polyreactivity
QVQLVESGGGLVQEVGSLRISCAASGRIFYVYSMGWYRQAPGKERELVAAITSGGRTDYADSVKGRFTISRDNAKNTVYLQLNSLKPEDTAVYYCAAGGGWNGHRHRWLYGYGYWGQGTQVTVSS | high polyreactivity
QVQLVESGGGLVQGGGSLRLSCAASGLILRKYAMGWYRQAPGKEREFVAAITQTGSRTYYADSVKGRFTISRDNAKNTVYLQMNSLKPEDTAVYYCNAVNYRSSRDSGYWGQGTQVTVSS | high polyreactivity
